pKd: −log10 of the molar value.
Key:
[1] = biological target: β2-adrenergic receptor, construct PN1 (monomeric) (UniProt P07550); test: BLI; as a14, with AP at 10 μM
[2] = biological target: β2-adrenergic receptor, construct PN1 (monomeric β2AR) (human) (UniProt P07550); test: BLI; as a1, monomeric β2AR with 10 µM AP; 10 µM Iso; apparent kon and koff; KD from equilibrium responses
[3] = biological target: AP-bound β2AR dimer (construct PN1 with AP-7-168) (UniProt P07550); test: SEC; AP-bound dimer with nucleotide-free Gs; peak fractions on SDS-PAGE, ratio of β2AR to Gα bands estimated on gels
[4] = biological target: β2-adrenergic receptor, construct PN1 (monomeric) (UniProt P07550); test: BLI; FLAG-tagged β2AR held through biotinylated anti-FLAG M1 Fab on SA tips with 10 μM Iso; Gs 30 nM to 10 μM with 10 μM GDP and 0.1% BSA; NH buffer, 0.01% LMNG, 0.001% CHS; 30°C; KD from equilibrium responses

- pKd [1]: 5.77
- pKd [2]: 5.77
- stoichiometry N [3]: 2 β2AR per Gα
- pKd [4]: 6.02
Substance: heterotrimeric Gs (Gαsβ1γ2) (from UniProt P63092 1-394; P62873 1-340; P59768 1-71) (complex)
